Experimental findings from PMC2995781 are described below.

In experiment [1] the target is surfactant protein A (SP-A) in human broncho-alveolar lavage fluid (human (endogenous in BAL fluid)) (UniProt Q8IWL2). The experiment can be described thus: latex bead agglutination (light microscopy); whole serum or BAL sample; streptavidin latex beads with biotinylated rabbit anti-goat antibody and goat anti-human SP-A antibody (N19); Hank solution, 6.5 mM Ca2+, 3 h at 4°C on a microscope slide; size of the biggest agglutinate in pixel.

In experiment [2] the target is surfactant protein A (SP-A) in human serum (human (endogenous in serum)) (UniProt Q8IWL2). The description is as above.

In turn, “surfactant protein A (SP-A) in human broncho-alveolar lavage fluid (from UniProt Q8IWL2 21-248) (natural protein)” registered a size of the agglutinates in experiment [1] of 1060 pixel. In turn, “surfactant protein A (SP-A) in human serum (from UniProt Q8IWL2 21-248) (natural protein)” registered a size of the agglutinates in experiment [2] of 1360 pixel.
